Read-outs that look alike come from different tables or passages of the source.
Key:
[1] = target: T1, aerolysin pore (activated aerolysin in a planar lipid bilayer) (UniProt P09167 24-445); experiment: single-channel nanopore current recording
[2] = target: T1, aerolysin pore (activated aerolysin in …); experiment: single-channel nanopore current recording; remark: listed apart in the source

T1 sequence (P09167 24-445): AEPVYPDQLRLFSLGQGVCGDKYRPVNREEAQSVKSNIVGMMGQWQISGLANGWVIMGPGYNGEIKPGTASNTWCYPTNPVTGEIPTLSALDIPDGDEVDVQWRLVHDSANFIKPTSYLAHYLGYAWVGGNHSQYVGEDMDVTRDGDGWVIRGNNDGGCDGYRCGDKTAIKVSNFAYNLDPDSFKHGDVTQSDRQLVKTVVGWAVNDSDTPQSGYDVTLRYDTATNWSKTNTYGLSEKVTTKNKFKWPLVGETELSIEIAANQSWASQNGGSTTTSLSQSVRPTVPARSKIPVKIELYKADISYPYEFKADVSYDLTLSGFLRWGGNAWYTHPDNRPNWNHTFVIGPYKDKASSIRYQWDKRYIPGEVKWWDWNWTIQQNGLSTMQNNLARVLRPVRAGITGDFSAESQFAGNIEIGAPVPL

QFETSAAKLKRKYWWKNL [synthetic peptide Sb2(76-93)s]
kon [1]: 8.1e+07 M⁻¹ s⁻¹
kon [2]: 8.7e+06 M⁻¹ s⁻¹

Reference: publication PMC4296922 (ACS Applied Materials & Interfaces, 2014)
